Measurements taken from patent publication KR20150068913A.

Biological target: 광견병 바이러스 CVS-11의 야생형 G 단백질 (rabies virus CVS-11) (UniProt O92284)
Experiment: cell-based or functional assay

Chain of UniProt O92284 (O92284 20-524 limits assumed): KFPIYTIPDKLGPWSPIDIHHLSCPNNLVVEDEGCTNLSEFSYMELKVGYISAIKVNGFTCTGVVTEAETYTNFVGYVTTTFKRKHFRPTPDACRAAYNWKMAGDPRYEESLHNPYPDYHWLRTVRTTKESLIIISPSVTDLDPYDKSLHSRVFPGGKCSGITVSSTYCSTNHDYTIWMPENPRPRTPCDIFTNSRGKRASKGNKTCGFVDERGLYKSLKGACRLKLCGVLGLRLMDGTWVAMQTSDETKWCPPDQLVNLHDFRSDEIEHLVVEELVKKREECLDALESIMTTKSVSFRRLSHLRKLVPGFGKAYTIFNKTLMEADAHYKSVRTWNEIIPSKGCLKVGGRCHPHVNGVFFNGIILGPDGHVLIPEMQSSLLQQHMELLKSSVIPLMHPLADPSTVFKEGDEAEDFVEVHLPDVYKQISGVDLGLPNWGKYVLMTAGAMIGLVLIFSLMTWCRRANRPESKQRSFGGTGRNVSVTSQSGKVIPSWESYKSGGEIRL

B1: 이 건 항체 2 (antibody, V domains shown)
VH: EVQLVESGAEVKKPGASVKVSCKASGYTFTSYDVSWVRQAPGQGLEWMGWISAYRGNTKYAQKFQGRVTMTTDTSTSTAYMELRSLRSDDTAVYYCARAKSHPYYDFWSGYYVPGAFDIWGQGTMVTVSS
VL: ELQMTQSPSSLSASVGDRVTITCQASQDISNYLTWYQQKPGKAPKLLIYDASNLETGVPSRFSGSGSGTDFTFTISSLQPEDIATYYCQQYDNLPPTFGGGTKVEIKR
RFFIT IU/mL, CVS-11: 1.59 IU/mL | RFFIT IU/mg, CVS-11 (중화능력): 7940 IU/mg | RFFIT Titer, CVS-11: 270
